In the supplement of paper PMC11246515:
± gives the standard deviation of the averaged measurements.

Assay: total protein half-life in vivo (active degradation + dilution); higher = more stable protein
[1] = E. coli NCM3722 delta-clpP delta-lon delta-hslV, growth: N-lim chemostat, doubling time 6 h
[2] = E. coli NCM3722 delta-clpP, growth: N-lim chemostat, doubling time 6 h
[3] = E. coli NCM3722 delta-hslV, growth: N-lim chemostat, doubling time 6 h
[4] = E. coli NCM3722 delta-lon, growth: N-lim chemostat, doubling time 6 h
[5] = E. coli NCM3722 delta-smpB, growth: N-lim chemostat, doubling time 6 h
[6] = wild type E. coli NCM3722, growth: C-lim chemostat, doubling time 3 h
[7] = wild type E. coli NCM3722, growth: C-lim chemostat, doubling time 6 h
[8] = wild type E. coli NCM3722, growth: C-lim chemostat, doubling time 12 h
[9] = wild type E. coli NCM3722, growth: N-lim chemostat, doubling time 6 h
[10] = wild type E. coli NCM3722, growth: N-lim chemostat, doubling time 12 h
[11] = wild type E. coli NCM3722, growth: P-lim chemostat, doubling time 6 h
[12] = wild type E. coli NCM3722, growth: P-lim chemostat, doubling time 12 h

| Sequence | total protein half-life in vivo [1] [h] | total protein half-life in vivo [2] [h] | total protein half-life in vivo [3] [h] | total protein half-life in vivo [4] [h] | total protein half-life in vivo [5] [h] | total protein half-life in vivo [6] [h] | total protein half-life in vivo [7] [h] | total protein half-life in vivo [8] [h] | total protein half-life in vivo [9] [h] | total protein half-life in vivo [10] [h] | total protein half-life in vivo [11] [h] | total protein half-life in vivo [12] [h] |
| --- | --- | --- | --- | --- | --- | --- | --- | --- | --- | --- | --- | --- |
| MRLDKFIAQQLGVSRAIAGREIRGNRVTVDGEIVRNAAFKLLPEHDVAYDGNPLAQQHGPRYFMLNKPQGYVCSTDDPDHPTVLYFLDEPVAWKLHAAGRLDIDTTGLVLMTDDGQWSHRITSPRHHCEKTYLVTLESPVADDTAEQFAKGVQLHNEKDLTKPAVLEVITPTQVRLTISEGRYHQVKRMFAAVGNHVVELHRERIGGITLDADLAPGEYRPLTEEEIASVV [P0AA43] | 5.25 ± 0.067 | 4.76 ± 0.54 | 3.68 ± 0.064 | 4.65 ± 0.39 | 3.78 ± 0.066 | 3 ± 0.1 | 4.74 ± 0.18 | 8.66 ± 0.55 | 3.57 ± 0.14 | 6.08 ± 0.51 | 4 ± 0.33 | 7.21 ± 0.22 |
| MFKPHVTVACVVHAEGKFLVVEETINGKALWNQPAGHLEADETLVEAAARELWEETGISAQPQHFIRMHQWIAPDKTPFLRFLFAIELEQICPTQPHDSDIDCCRWVSAEEILQASNLRSPLVAESIRCYQSGQRYPLEMIGDFNWPFTKGVI [P0AEI6] | 4.74 ± 0.38 | 4.42 ± 0.56 | 4.45 | 4.69 ± 0.34 | 4.929 ± 0.049 |  | 5.3 ± 0.12 | 11.6 ± 1.9 | 4.54 ± 0.27 | 6.249 ± 0.042 | 5.49 ± 0.18 | 11.12 ± 0.055 |
| MMQTVLAKIVADKAIWVEARKQQQPLASFQNEVQPSTRHFYDALQGARTAFILECKKASPSKGVIRDDFDPARIAAIYKHYASAISVLTDEKYFQGSFNFLPIVSQIAPQPILCKDFIIDPYQIYLARYYQADACLLMLSVLDDDQYRQLAAVAHSLEMGVLTEVSNEEEQERAIALGAKVVGINNRDLRDLSIDLNRTRELAPKLGHNVTVISESGINTYAQVRELSHFANGFLIGSALMAHDDLHAAVRRVLLGENKVCGLTRGQDAKAAYDAGAIYGGLIFVATSPRCVNVEQAQEVMAAAPLQYVGVFRNHDIADVVDKAKVLSLAAVQLHGNEEQLYIDTLREALPAHVAIWKALSVGETLPAREFQHVDKYVLDNGQGGSGQRFDWSLLNGQSLGNVLLAGGLGADNCVEAAQTGCAGLDFNSAVESQPGIKDARLLASVFQTLRAY | 4.8 ± 0.34 | 4.62 ± 1 | 4.15 ± 0.2 | 5.01 ± 0.64 | 4.1 ± 0.18 | 2.91 ± 0.1 | 4.97 ± 0.14 | 7.713 ± 0.011 | 4 ± 0.086 | 6.392 ± 0.053 | 4.9 ± 0.078 | 9.51 ± 0.49 |
| MENYLIDNLDRGILEALMGNARTAYAELAKQFGVSPGTIHVRVEKMKQAGIITGARIDVSPKQLGYDVGCFIGIILKSAKDYPSALAKLESLDEVTEAYYTTGHYSIFIKVMCRSIDALQHVLINKIQTIDEIQSTETLIVLQNPIMRTIKP [P0ACI6] |  | 5.95 | 6.24 ± 1.1 | 5.77 ± 0.21 | 5.72 ± 0.49 | 3.51 ± 0.15 | 6.232 ± 0.029 | 11.4 | 5.85 ± 0.57 | 11.6 ± 0.12 | 6.94 ± 0.64 | 13.2 ± 0.17 |
| METRREERIGQLLQELKRSDKLHLKDAAALLGVSEMTIRRDLNNHSAPVVLLGGYIVLEPRSASHYLLSDQKSRLVEEKRRAAKLAATLVEPDQTLFFDCGTTTPWIIEAIDNEIPFTAVCYSLNTFLALKEKPHCRAFLCGGEFHASNAIFKPIDFQQTLNNFCPDIAFYSAAGVHVSKGATCFNLEELPVKHWAMSMAQKHVLVVDHSKFGKVRPARMGDLKRFDIVVSDCCPEDEYVKYAQTQRIKLMY [P0ACK5] | 6.81 ± 0.62 | 6.08 ± 0.73 | 6.59 ± 0.9 | 6.9 ± 1.5 | 5.02 ± 0.12 | 2.74 | 6.23 ± 0.15 | 9.99 ± 0.58 | 5.81 ± 0.078 | 10.57 ± 0.023 | 5.99 ± 0.49 |  |
| MAGNTIGQLFRVTTFGESHGLALGCIVDGVPPGIPLTEADLQHDLDRRRPGTSRYTTQRREPDQVKILSGVFEGVTTGTSIGLLIENTDQRSQDYSAIKDVFRPGHADYTYEQKYGLRDYRGGGRSSARETAMRVAAGAIAKKYLAEKFGIEIRGCLTQMGDIPLDIKDWSQVEQNPFFCPDPDKIDALDELMRALKKEGDSIGAKVTVVASGVPAGLGEPVFDRLDADIAHALMSINAVKGVEIGDGFDVVALRGSQNRDEITKDGFQSNHAGGILGGISSGQQIIAHMALKPTSSITVPGRTINRFGEEVEMITKGRHDPCVGIRAVPIAEAMLAIVLMDHLLRQRAQNADVKTDIPRW | 5.73 ± 0.43 | 5.29 ± 0.1 | 5.199 ± 0.021 |  | 4.78 ± 0.14 | 3.41 ± 0.23 | 5.92 ± 0.13 | 12 ± 0.84 | 5.09 ± 0.23 | 9.61 ± 0.79 | 6.51 ± 0.34 | 12.6 ± 1.4 |
| MQTKKNEIWVGIFLLAALLAALFVCLKAANVTSIRTEPTYTLYATFDNIGGLKARSPVSIGGVVVGRVADITLDPKTYLPRVTLEIEQRYNHIPDTSSLSIRTSGLLGEQYLALNVGFEDPELGTAILKDGDTIQDTKSAMVLEDLIGQFLYGSKGDDNKNSGDAPAAAPGNNETTEPVGTTK | 6.04 ± 0.2 | 6.2952 ± 0.0017 | 5.73 ± 1.1 | 6.27 ± 0.51 | 6.07 ± 0.14 |  | 5.612 ± 0.038 | 12.5 ± 1.4 | 6.08 ± 0.09 | 13.6 ± 1.8 | 5.72 ± 0.45 | 13.7 ± 0.79 |
| MAKYNEKELADTSKFLSFVLRHKPEAIGIVLDREGWADIDKLILCAQKAGKRLTRALLDTVVATSDKKRFSYSSDGRCIRAVQGHSTSQVAISFAEKTPPQFLYHGTASRFLDEIKKQGLIAGERHYVHLSADEATARKVGARHGSPVILTVKAQEMAKRGLPFWQAENGVWLTSTVAVEFLEW | 4.33 | 1.59 |  | 2.51 | 1.27 ± 0.11 | 1.85 | 2.25 ± 0.44 | 5.97 |  |  |  |  |
